Results taken from paper PMC12175502, “7β-Hydroxysteroid dehydratase Hsh3 eliminates the 7-hydroxy group of the bile salt ursodeoxycholate during degradation by Sphingobium sp. strain Chol11 and other Sphingomonadaceae” (Applied and Environmental Microbiology, 2025).

Tests used:
[1] = system: T1, C[C@]12C=CC(=O)C=C1C[C@H](O)[C@@H]1[C@@H]2CC[C@]2(C)C(=O)CC[C@@H]12; assay: purified protein; type: biochemical, Sphingobium sp. Chol11; details: 50 mM MOPS pH 7.8, 30 °C, 25% ethanol, dehydration, substrate range 50 µM to 1 mM
T1 construct: His-tagged, pET28b(+), E. coli Tuner(DE3), Ni-NTA and desalting gel filtration; tag not reported cut; primers read start MEKLICAL and end AHLDGK before vector C-terminal tag

Hsh2 = system: T2, Hsh2; assay: continuous spectrophotometric assay at […] nm; type: biochemical, Sphingobium sp. Chol11; details: 50 mM MOPS pH 7.8, 30 °C, 25% ethanol; dehydration; substrate range 50 µM to 1 mM
T2 construct: tag not reported cut

With Hsh3 (Nov2c681) (Sphingobium sp.) the Km [1] was 1260 ± 450 µM, the kcat [1] was 130 ± 30.1 s⁻¹ and the kcat/Km [1] was 103000 M⁻¹ s⁻¹.
For `C[C@]12C=CC(=O)C=C1C[C@@H](O)[C@@H]1[C@@H]2CC[C@]2(C)C(=O)CC[C@@H]12` [XI, 7α-hydroxy-androsta-1,4-diene-3,17-dione], the Km (Hsh2) was 250 ± 50 µM.
